According to US20070031331A1 (Genentech, published 2007):

T1: human CD20 (human, UniProt P11836 1-297)
T1 construct: whole, on cells; also called CD20 antigen; Bp35
T1 sequence (looked up): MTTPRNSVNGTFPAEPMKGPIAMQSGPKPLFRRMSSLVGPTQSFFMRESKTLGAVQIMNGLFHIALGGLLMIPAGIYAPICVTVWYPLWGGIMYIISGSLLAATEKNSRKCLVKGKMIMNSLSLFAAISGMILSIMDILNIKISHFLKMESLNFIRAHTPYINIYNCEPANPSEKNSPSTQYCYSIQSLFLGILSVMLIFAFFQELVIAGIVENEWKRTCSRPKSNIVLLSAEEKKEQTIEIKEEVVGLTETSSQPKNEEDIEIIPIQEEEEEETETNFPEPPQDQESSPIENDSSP


Key:
[1] = target: T1, human CD20; assay: cell-based ELISA on WIL2-S cells; conc. 2H7.v16 / conc. variant
Experimental: To measure relative binding affinities to the CD20 antigen, a cell-based ELISA assay was developed. […] The cells were washed with PBS containing 1% fetal bovine serum (FBS) (assay buffer) and seeded at 250-300,000 cell/well in 96-well round bottom plates (Nunc, Roskilde, Denmark). […] The plates were buried in ice and incubated for 45 min. To remove the unbound antibody, 0.1 mL assay buffer was added to the wells. Plates were centrifuged and supernatants were removed. Cells were washed two more times with 0.2 mL assay buffer. Antibody bound to the plates was detected by adding peroxidase-conjugated goat anti-human Fc antibody (Jackson ImmunoResearch, West Grove, Pa.) to the plates. After a 45-min incubation, cells were washed as described before. TMB substrate (3,3′,5,5′-tetramethyl benzidine; Kirkegaard & Perry Laboratories, Gaithersburg, Md.) was added to the plates. The reaction was stopped by adding 1 M phosphoric acid. Titration curves were fit with a four-parameter nonlinear regression curve-fitting program ([…] ™, Synergy software, Reading, Pa.). The absorbance at the midpoint of the titration curve (mid-OD) and its corresponding concentration of the standard were determined. Then the concentration of each variant at this mid-OD was determined, and the concentration of the standard was divided by that of each variant.

[2] = target: T1, human CD20; assay: Scatchard analysis, cold antibody against 125I-2H7.v16 on WIL2-S cells, n=4
Experimental: All dilutions were performed in binding assay buffer (DMEM media containing 1% bovine serum albumin, 25 mM HEPES pH 7.2, and 0.01% sodium azide). […] WIL2-S cells (60,000 cells in 0.025 mL) were then added. The plate was sealed and incubated at room temperature for 24 hours, then centrifuged for 15 min at 3,500 RPM. The supernatant was then aspirated and the cell pellet was washed and centrifuged. The supernatant was again aspirated, and the pellets were dissolved in 1N NaOH and transferred to tubes for gamma counting.

Row | Binder | Relative binding [1] [ratio] | Kd [2] [nM]
1 | 2H7.v166 (antibody, human IgG1, kappa, V domains shown, IgG1; changes relative to 2H7.v16; Y100b is deleted (written as a change to nothing); also called 2H7 version 166) VH: EVQLVESGGGLVQPGGSLRLSCAASGYTFTSYNMHWVRQAPGKGLEWVGAIYPGNGDTSYNQKFKGRFTISVDKSKNTLYLQMNSLRAEDTAVYYCARVVYYGGDWYFDVWGQGTLVTVSS VL: DIQMTQSPSSLSASVGDRVTITCRASSSVSYMHWYQQKPGKAPKPLIYAPSNLASGVPSRFSGSGSGTDFTLTISSLQPEDFATYYCQQWSFNPPTFGQGTKVEIKR | 0.99 | 
2 | 2H7.v73 (antibody, IgG1, IgG1; changes relative to 2H7.v16; also called 2H7 version 73) heavy: not shown light: DIQMTQSPSSLSASVGDRVTITCRASSSVSYLHWYQQKPGKAPKPLIYAPSNLASGVPSRFSGSGSGTDFTLTISSLQPEDFATYYCQQWSFNPPTFGQGTKVEIKRTVAAPSVFIFPPSDEQLKSGTASVVCLLNNFYPREAKVQWKVDNALQSGNSQESVTEQDSKDSTYSLSSTLTLSKADYEKHKVYACEVTHQGLSSPVTKSFNRGEC |  | 1.22
3 | 2H7.v75 (antibody, IgG1, IgG1; changes relative to 2H7.v16; also called 2H7 version 75) heavy: EVQLVESGGGLVQPGGSLRLSCAASGYTFTSYNMHWVRQAPGKGLEWVGAIYPGNGDTSYNQKFKGRFTISVDKSKNTLYLQMNSLRAEDTAVYYCARVVYYSASYWYFDVWGQGTLVTVSSASTKGPSVFPLAPSSKSTSGGTAALGCLVKDYFPEPVTVSWNSGALTSGVHTFPAVLQSSGLYSLSSVVTVPSSSLGTQTYICNVNHKPSNTKVDKKVEPKSCDKTHTCPPCPAPELLGGPSVFLFPPKPKDTLMISRTPEVTCVVVDVSHEDPEVKFNWYVDGVEVHNAKTKPREEQYNATYRVVSVLTVLHQDWLNGKEYKCKVSNKALPAPIAATISKAKGQPREPQVYTLPPSREEMTKNQVSLTCLVKGFYPSDIAVEWESNGQPENNYKTTPPVLDSDGSFFLYSKLTVDKSRWQQGNVFSCSVMHEALHNHYTQKSLSLSPGK light: DIQMTQSPSSLSASVGDRVTITCRASSSVSYLHWYQQKPGKAPKPLIYAPSNLASGVPSRFSGSGSGTDFTLTISSLQPEDFATYYCQQWSFNPPTFGQGTKVEIKRTVAAPSVFIFPPSDEQLKSGTASVVCLLNNFYPREAKVQWKVDNALQSGNSQESVTEQDSKDSTYSLSSTLTLSKADYEKHKVYACEVTHQGLSSPVTKSFNRGEC |  | 1.09
